What was measured:
Mrs1 [1] = target: T1, Mrs1 (yeast, UniProt P07266 1-363); assay: filter binding; details: RNA folded in its own buffer (composition not given), 30 min at 37 C with Mrs1, SL and B5 at 8 mM MgCl2
T1 sequence: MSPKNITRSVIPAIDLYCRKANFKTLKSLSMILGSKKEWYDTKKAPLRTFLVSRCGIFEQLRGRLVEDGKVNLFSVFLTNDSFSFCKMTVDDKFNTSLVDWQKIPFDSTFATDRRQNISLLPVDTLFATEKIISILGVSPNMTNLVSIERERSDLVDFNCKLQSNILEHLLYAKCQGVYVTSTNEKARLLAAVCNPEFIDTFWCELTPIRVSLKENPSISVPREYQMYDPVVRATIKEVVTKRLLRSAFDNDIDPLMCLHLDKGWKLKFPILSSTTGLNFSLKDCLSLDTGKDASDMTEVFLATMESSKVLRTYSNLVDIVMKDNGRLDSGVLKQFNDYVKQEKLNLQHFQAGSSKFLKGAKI

Mrs1 [2] = target: T1, Mrs1; assay: filter binding; 8 mM MgCl2; Hill ~1.5; Filter partitioning (nitrocellulose/Hybond), RNA folded in its own buffer (composition not given), 30 min at 37 C with Mrs1; SL and B5 at 8 mM MgCl2; RNA ~0.5 nM (large) or ~0.1 nM (SL, B5); details: protein: recombinant, chain copies: 2, label: internal 32P

How did the K half (Mrs1 [1]; Hill 1.8, Filter partitioning (nitrocellulose/Hybond)) turn out when Azoarcus group I intron RNA was run?
The K half was 3 nM.

With RNase P specificity domain RNA as the molecule, how does the K half (Mrs1 [1]; Hill 2.0, Filter partitioning (nitrocellulose/Hybond)) read?
Its K half is 230 nM.

For bI3 group I intron RNA, which K half (Mrs1 [1]; Hill 2.2, Filter partitioning (nitrocellulose/Hybond)) is on record?
Its K half is 9.7 nM.

B1: B5 RNA (structured_RNA)
RNA: GGCUGACGAAGCGGUGCAGUGCUGUUUCAGCACUGCACCGAAAAACUUCGUCAGCC
Which “apparent K (half saturation)” value (Mrs1 [2]; hairpin with 5 nt bulge) does the source give for B1 here?
Its value is ~500 nM.

B2: SL RNA (structured_RNA)
RNA: GGCUGACGAAGCGGUGCAGUGCUGUUUCAGCACUGCACCGCUUCGUCAGCC
How did the “apparent K (half saturation)” value (Mrs1 [2]; hairpin, 24 bp) turn out when B2 was run?
Its value is 1300 nM.

Source: publication PMC2813881, “The Mrs1 Splicing Factor Binds the bI3 Group I Intron at Each of Two Tetraloop-Receptor Motifs”
